B1: Protein S100-G, P02633 (parent)
chain: MSAKKSPEELKGIFEKYAAKEGDPNQLSKEELKLLLQTEFPSLLKGPSTLDELFEELDKNGDGEVSFEEFQVLVKKISQ

Variants of B1 are the subject of this data set. Particulars: Bos taurus; pH 7; 25 °C; Urea; CD; PIPES-KOH 20 mM; reversible: yes; structure 1IGV; whole UniProt chain shown.

D23N E30Q: the “ddG of mutation (higher = less stable)” value was -2.18 kJ/mol, the “denaturant midpoint (higher = more stable)” value (“denaturant midpoint” for short) stood at 5.8 M and the unfolding free energy was 3.39 kJ/mol.
As to E21Q D23N E30Q, the “ddG of mutation (higher = less stable)” value is -3.89 kJ/mol, the “denaturant midpoint” value is 6.1 M and the unfolding free energy is 5.1 kJ/mol.
E21Q: the “ddG of mutation (higher = less stable)” value was -1.59 kJ/mol, the “denaturant midpoint” value came out at 5.6 M and the unfolding free energy stood at 2.8 kJ/mol.
E21Q D23N: the “ddG of mutation (higher = less stable)” value is -4.98 kJ/mol, the “denaturant midpoint” value was 6.2 M and the unfolding free energy was found to be 6.19 kJ/mol.

Source of the values: FireProtDB (doi:10.1002/prot.340080106).
